The source of these data is patent US20080044360A1.

Bridge positions count the residues as written; N and C are the ends. Square brackets hold non-standard residues; d marks the D form. Primed or numbered codes have the meaning given here. Ends that are not written are not given here. Tyr(3-Cl) = N[C@@H](Cc1ccc(O)c(Cl)c1)C(=O)O; Gd^T″ = GdDTPA-thiourea; Dap = NC[C@H](N)C(=O)O

To fix the notation:
B1: SEQ ID NO 167 (peptide)
peptide: QWT[dC]SGDEYTWHCNYE
modifications: disulfide 4-13 (inferred); not fully specified (N-terminus, C-terminus); printed as QWTcSGDEYTWHCNYE
B2: SEQ ID NO 174 (peptide)
peptide: QWTCSGDEYTW[dH]CNYE
modifications: disulfide 4-13 (inferred); not fully specified (N-terminus); printed as QWTCSGDEYTWhCNYE
B3: SEQ ID NO 159 (peptide)
peptide: YHACYQAG[dC]WIW
modifications: disulfide 4-9 (inferred); not fully specified (C-terminus); printed as YHACYQAGcWIW
B4: SEQ ID NO 169 (peptide)
peptide: QWTCSG[dD]EYTWHCNYE
modifications: disulfide 4-13 (inferred); not fully specified (N-terminus); printed as QWTCSGdEYTWHCNYE

In one test the target is human collagen type I, acid soluble, extracted from placenta (Sigma C7774) (human) (UniProt P02452). The test is described as follows: dried collagen assay.
Sequence of human collagen type I, acid soluble, extracted from placenta (Sigma C7774) (human) (P02452 162-1218 limits assumed, chain 1 of 2): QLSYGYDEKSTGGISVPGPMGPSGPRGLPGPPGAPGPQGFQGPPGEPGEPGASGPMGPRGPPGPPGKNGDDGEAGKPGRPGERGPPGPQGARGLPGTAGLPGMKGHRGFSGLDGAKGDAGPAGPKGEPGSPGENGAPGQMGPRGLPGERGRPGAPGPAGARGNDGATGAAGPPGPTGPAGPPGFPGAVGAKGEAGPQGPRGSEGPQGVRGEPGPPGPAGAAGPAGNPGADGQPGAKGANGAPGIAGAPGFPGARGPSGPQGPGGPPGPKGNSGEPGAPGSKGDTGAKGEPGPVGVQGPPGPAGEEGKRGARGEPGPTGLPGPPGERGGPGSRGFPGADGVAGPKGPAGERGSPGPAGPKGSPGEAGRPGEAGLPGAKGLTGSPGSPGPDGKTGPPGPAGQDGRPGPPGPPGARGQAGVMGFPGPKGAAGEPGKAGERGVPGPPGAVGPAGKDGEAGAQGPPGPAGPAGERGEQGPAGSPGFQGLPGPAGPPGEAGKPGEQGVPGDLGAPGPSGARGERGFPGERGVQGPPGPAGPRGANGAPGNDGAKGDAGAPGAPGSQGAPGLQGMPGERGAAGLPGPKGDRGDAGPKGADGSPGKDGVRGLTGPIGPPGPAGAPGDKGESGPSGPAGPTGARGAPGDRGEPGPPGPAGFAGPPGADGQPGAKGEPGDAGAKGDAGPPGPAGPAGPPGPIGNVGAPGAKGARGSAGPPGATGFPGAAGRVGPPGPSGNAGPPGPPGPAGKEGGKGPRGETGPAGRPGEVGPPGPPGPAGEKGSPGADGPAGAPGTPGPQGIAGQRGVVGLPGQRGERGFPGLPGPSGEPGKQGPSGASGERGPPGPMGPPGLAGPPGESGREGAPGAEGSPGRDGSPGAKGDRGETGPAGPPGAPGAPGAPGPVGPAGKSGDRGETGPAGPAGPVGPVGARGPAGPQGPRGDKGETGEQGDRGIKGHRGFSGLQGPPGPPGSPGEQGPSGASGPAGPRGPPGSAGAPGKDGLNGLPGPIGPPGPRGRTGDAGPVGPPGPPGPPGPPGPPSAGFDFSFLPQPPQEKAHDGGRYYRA
Sequence of human collagen type I, acid soluble, extracted from placenta (Sigma C7774) (human) (P08123 80-1119 limits assumed, chain 2 of 2, further chain): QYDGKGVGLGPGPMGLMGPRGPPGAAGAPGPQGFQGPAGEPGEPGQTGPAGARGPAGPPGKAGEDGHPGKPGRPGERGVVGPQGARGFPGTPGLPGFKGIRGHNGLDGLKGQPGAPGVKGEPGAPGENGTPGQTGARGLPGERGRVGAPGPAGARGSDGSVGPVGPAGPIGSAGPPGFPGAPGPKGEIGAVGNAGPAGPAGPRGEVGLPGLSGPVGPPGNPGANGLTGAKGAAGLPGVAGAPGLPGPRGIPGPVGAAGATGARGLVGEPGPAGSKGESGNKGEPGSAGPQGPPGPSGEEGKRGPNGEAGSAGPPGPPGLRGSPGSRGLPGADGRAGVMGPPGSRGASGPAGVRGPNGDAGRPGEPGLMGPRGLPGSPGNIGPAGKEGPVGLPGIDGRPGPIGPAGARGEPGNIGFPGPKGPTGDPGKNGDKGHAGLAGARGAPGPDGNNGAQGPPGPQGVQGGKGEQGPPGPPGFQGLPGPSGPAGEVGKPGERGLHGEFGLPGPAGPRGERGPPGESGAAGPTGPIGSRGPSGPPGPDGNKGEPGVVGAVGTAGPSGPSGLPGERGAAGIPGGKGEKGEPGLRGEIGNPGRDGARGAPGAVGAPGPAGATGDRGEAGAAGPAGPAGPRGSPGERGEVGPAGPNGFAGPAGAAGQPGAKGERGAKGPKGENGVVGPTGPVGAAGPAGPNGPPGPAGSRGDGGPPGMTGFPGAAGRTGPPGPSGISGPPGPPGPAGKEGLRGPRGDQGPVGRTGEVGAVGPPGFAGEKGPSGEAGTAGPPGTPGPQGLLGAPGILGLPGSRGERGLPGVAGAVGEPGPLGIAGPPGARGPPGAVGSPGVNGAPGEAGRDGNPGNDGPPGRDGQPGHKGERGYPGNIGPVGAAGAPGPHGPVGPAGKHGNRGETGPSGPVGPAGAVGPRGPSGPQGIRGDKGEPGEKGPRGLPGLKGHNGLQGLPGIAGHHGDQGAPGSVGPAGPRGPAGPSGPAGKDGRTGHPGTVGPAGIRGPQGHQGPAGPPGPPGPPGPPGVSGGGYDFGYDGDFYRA
Take {Gd^T″}-GQWHCTTRFPHH[dT]CLYG (disulfide 5-14 (inferred); not fully specified (C-terminus)) [Compound ID 905]: the % bound was 6%.
On the same count and under the same terms, next, GWACNTTSKGDWECTNL (disulfide 4-14 (inferred)) [SEQ ID NO 83]: 3%; {Gd^T″}-GQWHCT[dN]RFPHHYCLYG (disulfide 5-14 (inferred); not fully specified (C-terminus)) [Compound ID 897]: 4%; GWSCHSMDMQWHCDFS (disulfide 4-13 (inferred)) [SEQ ID NO 67]: 5%.
The same measure, in the same setting: then SWSCGGDHNAWKCQYS (disulfide 4-13 (inferred)) [SEQ ID NO 36], with 7%; and B1, with 4%; and QWFCEMDEYGKWNCGMM (disulfide 4-14 (inferred)) [SEQ ID NO 81], with 3%.
The same measure, in the same setting: then LWNCHGTDANWKCVLN (disulfide 4-13 (inferred)) [SEQ ID NO 37], with 7%; and B2, with 5%.
Consider HWSCDLAMDNEWFCSTK (disulfide 4-14 (inferred)) [SEQ ID NO 84], for which the % bound stood at 3%.
As for LWTCSMDRNYDWVCGEK (disulfide 4-14 (inferred)) [SEQ ID NO 82], the % bound turned out to be 3%.
Still for that read-out and setting: then RWSCVLDADGWVCSDN (disulfide 4-13 (inferred)) [SEQ ID NO 66], with 6%; and PWWCHEMPSMCFGF (disulfide 4-11 (inferred)) [SEQ ID NO 3], with 2%.
Still for that read-out and setting: next, {Gd^T″}-GQWHCTTDFPH[Dap]YCLYG (disulfide 5-14) [Compound ID 886]: 8%; YHACYQAGCYIY (disulfide 4-9 (inferred)) [SEQ ID NO 108]: 5%; GWTCSQPGANVWNCTMQ (disulfide 4-14 (inferred)) [SEQ ID NO 85]: 3%.
On the same count and under the same terms, then WQVCADSPGVITYCYTY (disulfide 4-14 (inferred)) [SEQ ID NO 98], with 5%; and SWHCFLENHHWMCSDH (disulfide 4-13 (inferred)) [SEQ ID NO 68], with 5%.
As to FSECVWVNAYQCEYF (disulfide 4-12 (inferred)) [SEQ ID NO 113], the % bound is 3%.
In turn, {Gd^T″}-GQWHCTTRFPHH[dR]CLYG (disulfide 5-14 (inferred); not fully specified (C-terminus)) [Compound ID 902] gave a % bound of 7%.
Turning to B3, the % bound came to 7%.
SWYCNNGSYGQWHCEHR (disulfide 4-14 (inferred)) [SEQ ID NO 80] showed a % bound of 6%.
With {Gd^T″}-GQWHCT[dS]RFPHHYCLYG (disulfide 5-14 (inferred); not fully specified (C-terminus)) [Compound ID 898], the % bound was determined as 5%.
GWSCHGDAADWPCQWS (disulfide 4-13 (inferred)) [SEQ ID NO 38] registered a % bound of 6%.
Consider {Gd^T″}-GQWHCT[dR]RFPHHYCLYG (disulfide 5-14 (inferred); not fully specified (C-terminus)) [Compound ID 900], for which the % bound came out at 4%.
On the same count and under the same terms, then GQWTCSGDEYTAHCNYE (disulfide 5-14 (inferred); not fully specified (C-terminus)) [SEQ ID NO 147], with 5%; and KWECVHTKGEWYCETK (disulfide 4-13 (inferred)) [SEQ ID NO 65], with 7%; and {Gd^T″}-GQWHCTTD[Tyr(3-Cl)]PHHYCLYG (disulfide 5-14 (inferred); not fully specified (C-terminus)) [Compound ID 895], with 7%.
Still for that read-out and setting: then AKKCWYNDGGHLRCRTL (disulfide 4-14 (inferred)) [SEQ ID NO 99], with 3%; and GWQCSGDASVWNCDWI (disulfide 4-13 (inferred)) [SEQ ID NO 39], with 6%.

The target in a further test is rat collagen, acid soluble, type I, rat tail (Upstate 08-115) (rat) (UniProt P02454). The test is described as follows: dried collagen assay.
Sequence of rat collagen, acid soluble, type I, rat tail (Upstate 08-115) (rat) (P02454 152-1207, chain 1 of 2): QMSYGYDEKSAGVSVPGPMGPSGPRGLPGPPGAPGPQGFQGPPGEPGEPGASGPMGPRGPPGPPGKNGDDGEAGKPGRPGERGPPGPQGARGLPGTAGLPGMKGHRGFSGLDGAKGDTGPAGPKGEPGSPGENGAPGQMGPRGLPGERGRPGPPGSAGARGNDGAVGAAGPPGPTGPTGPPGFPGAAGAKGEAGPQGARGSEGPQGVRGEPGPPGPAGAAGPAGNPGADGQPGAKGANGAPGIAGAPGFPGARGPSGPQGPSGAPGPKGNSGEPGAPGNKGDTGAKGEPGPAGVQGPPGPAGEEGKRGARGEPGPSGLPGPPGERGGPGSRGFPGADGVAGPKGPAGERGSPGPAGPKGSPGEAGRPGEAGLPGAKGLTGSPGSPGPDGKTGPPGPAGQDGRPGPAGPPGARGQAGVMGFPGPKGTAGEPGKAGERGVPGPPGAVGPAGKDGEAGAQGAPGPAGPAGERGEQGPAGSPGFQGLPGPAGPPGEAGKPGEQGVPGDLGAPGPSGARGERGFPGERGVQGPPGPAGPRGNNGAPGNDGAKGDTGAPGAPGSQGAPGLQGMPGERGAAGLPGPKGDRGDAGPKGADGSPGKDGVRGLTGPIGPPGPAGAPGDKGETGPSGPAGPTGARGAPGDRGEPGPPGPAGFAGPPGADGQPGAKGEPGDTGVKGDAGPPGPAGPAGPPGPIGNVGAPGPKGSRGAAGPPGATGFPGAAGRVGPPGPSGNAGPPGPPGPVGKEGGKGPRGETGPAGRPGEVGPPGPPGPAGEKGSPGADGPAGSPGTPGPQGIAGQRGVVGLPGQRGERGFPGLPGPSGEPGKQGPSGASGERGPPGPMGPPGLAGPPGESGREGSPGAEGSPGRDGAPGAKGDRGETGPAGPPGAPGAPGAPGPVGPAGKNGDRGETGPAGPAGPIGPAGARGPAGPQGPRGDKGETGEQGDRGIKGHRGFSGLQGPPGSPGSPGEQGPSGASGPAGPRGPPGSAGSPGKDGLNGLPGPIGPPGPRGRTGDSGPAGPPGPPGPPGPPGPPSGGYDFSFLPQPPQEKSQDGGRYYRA
Sequence of rat collagen, acid soluble, type I, rat tail (Upstate 08-115) (rat) (P02466 86-1125, chain 2 of 2, further chain): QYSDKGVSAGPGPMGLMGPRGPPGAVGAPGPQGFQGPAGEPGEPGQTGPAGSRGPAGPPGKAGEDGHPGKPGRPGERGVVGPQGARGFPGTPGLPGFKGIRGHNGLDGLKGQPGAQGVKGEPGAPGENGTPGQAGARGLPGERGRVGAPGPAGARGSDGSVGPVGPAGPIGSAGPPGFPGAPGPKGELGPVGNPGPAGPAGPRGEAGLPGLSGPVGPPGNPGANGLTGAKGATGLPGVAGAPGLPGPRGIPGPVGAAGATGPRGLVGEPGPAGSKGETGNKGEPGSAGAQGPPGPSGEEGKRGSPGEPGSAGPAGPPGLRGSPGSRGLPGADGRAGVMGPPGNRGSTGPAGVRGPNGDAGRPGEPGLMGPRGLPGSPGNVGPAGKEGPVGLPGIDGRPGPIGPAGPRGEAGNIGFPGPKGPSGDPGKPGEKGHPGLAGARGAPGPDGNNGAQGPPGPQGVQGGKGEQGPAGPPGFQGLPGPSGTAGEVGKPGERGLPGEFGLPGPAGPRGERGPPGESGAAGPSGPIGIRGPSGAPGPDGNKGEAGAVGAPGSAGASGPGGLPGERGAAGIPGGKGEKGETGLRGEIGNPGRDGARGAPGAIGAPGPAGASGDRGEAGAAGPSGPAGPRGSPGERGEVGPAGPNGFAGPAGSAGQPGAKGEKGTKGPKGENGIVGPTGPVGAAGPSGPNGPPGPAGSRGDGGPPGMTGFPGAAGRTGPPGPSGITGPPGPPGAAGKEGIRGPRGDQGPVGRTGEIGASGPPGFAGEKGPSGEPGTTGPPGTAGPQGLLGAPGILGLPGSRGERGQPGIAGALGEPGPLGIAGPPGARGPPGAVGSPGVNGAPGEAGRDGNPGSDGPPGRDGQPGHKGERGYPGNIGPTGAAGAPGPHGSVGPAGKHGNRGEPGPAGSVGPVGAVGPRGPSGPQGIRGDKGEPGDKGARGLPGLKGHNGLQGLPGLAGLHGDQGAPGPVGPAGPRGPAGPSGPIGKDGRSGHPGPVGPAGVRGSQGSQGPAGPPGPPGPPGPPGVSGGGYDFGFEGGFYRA
On to GQWTCSADEYTWHCNYE (disulfide 5-14 (inferred)) [SEQ ID NO 142], for which the % bound came to 6%.
B4 returned a % bound of 4%.
Turning to YHACYQAGCYIW (disulfide 4-9 (inferred)) [SEQ ID NO 107], the % bound came to 6%.
